# Data reported in patent publication EP4545563A1, “ANTIBODIES TARGETING ITGA2 AND ANTIBODY-DRUG […]” (Foreseen Technology (Beijing) Co., Ltd., priority 2022, dated 2024).
# Molecular target: ITGA2 protein on the surface of human tumor cells (HuCCT1, A431) (human) (UniProt P17301)
# Experiment: cell-based or functional assay
# Chain of ITGA2 protein on the surface of human tumor cells (HuCCT1, A431) (human) (P17301 30-1181): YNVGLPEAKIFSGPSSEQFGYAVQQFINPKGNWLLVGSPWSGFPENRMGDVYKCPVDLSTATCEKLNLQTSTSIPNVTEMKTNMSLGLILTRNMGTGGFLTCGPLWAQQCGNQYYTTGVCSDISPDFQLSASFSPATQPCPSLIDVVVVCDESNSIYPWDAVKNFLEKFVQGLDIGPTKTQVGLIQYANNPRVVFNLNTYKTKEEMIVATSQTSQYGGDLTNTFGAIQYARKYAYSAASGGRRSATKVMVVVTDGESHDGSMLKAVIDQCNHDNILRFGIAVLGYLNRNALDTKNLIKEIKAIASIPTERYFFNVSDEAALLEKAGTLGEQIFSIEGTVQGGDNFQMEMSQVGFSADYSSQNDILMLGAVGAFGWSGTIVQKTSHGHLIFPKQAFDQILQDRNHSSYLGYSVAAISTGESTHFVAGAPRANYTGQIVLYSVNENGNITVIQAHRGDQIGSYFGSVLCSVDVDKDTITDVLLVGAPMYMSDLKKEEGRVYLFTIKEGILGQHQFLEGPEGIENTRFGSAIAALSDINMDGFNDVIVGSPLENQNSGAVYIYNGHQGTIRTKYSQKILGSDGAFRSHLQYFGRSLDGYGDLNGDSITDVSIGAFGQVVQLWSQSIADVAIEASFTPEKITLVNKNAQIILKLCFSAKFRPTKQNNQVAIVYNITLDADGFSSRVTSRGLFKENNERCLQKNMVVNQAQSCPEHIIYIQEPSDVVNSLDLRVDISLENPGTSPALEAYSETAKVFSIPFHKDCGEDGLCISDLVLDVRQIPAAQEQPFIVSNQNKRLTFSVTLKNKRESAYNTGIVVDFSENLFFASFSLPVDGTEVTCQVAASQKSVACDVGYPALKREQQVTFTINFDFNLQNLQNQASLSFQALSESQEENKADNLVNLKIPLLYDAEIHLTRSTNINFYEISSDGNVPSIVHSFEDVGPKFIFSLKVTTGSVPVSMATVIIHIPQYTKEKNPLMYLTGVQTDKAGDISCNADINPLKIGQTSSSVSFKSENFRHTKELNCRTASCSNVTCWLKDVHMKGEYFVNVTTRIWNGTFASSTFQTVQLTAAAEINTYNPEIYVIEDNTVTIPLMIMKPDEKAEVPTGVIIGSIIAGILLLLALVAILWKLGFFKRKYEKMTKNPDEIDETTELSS
substance,measurement,value
Vatelizumab-ve-MMAE (antibody),A431 cell killing IC50,0.08 nM
same,HuCC-T1 cell killing IC50,0.89 nM
